Laboratory results: patent publication US20250011363A1, “OPTIMIZED SHORTENED PEPTIDE THAT BINDS TO ACETYLCHOLINE RECEPTOR, AND USE THEREOF” (SKINMED CO., LTD., priority 2021, published 2025)

The binders below were run against acetylcholine receptor (assay: SPR, acetylcholine receptor immobilized on CM5 chip, peptide at 10 uM).

Row | Binding affinity (RU) | Binder
1 | 31 | RYTFR [5mer-899]
2 | 29 | RHSVK [5mer-900]
3 | 29 | KNNNR [5mer-1199]

These binders were tested against acetylcholine receptor (assay: SPR, acetylcholine receptor on CM5 chip, peptide 10 µM).

Row | Binder | Binding affinity (RU)
4 | RVFTKK [6mer-2-546] | 127
5 | RWQRKK [6mer-2-536] | 125
6 | RWQLRK [6mer-2-569] | 135
7 | KGQCRK [6mer-2-541] | 126
8 | KLYCRK [6mer-2-545] | 125
9 | KSVCKK [6mer-2-558] | 154
10 | KWVLRK [6mer-2-557] | 123
11 | KRLSKK [6mer-2-566] | 139
12 | KRLTRR [6mer-2-540] | 142
13 | KQFCKK [6mer-2-538] | 125
14 | KGYQKR [6mer-2-563] | 131
15 | RLQCRR [6mer-2-548] | 142
16 | KVLCKR [6mer-2-537] | 153
17 | KWYTKK [6mer-2-539] | 127
18 | RQIYRR [6mer-2-542] | 148
19 | KSRRRR [6mer-2-565] | 147
20 | RRQYRR [6mer-2-543] | 144
21 | RWRCRR [6mer-2-554] | 121

Row | Binder | Binding affinity (RU)
22 | RQYTRR [6mer-2-560] | 153
23 | RWQCKR [6mer-2-547] | 135
24 | RSLQKK [6mer-2-553] | 124
25 | KQVYRK [6mer-2-564] | 148
26 | RQQRKR [6mer-2-562] | 136
27 | KVIQKR [6mer-2-544] | 147
28 | KLYYRK [6mer-2-567] | 146
29 | KGQLRR [6mer-2-559] | 121
30 | KGFQKK [6mer-2-568] | 142
31 | KLFCRR [6mer-2-535] | 133
32 | RSFTKK [6mer-2-550] | 148
33 | RSVSKK [6mer-2-555] | 154
34 | RSICKK [6mer-2-556] | 148
35 | KQLCKK [6mer-2-549] | 142
36 | KWYTKR [6mer-2-551] | 141
37 | RRVLKK [6mer-2-561] | 142
38 | RGLLRR [6mer-2-552] | 148

Second part, the binder after the results:

Row | Binding affinity (RU) | Binder
39 | 121 | RRRYRK [6mer-2-599]
40 | 148 | RVYYKR [6mer-2-570]
41 | 154 | KQFLRK [6mer-2-597]
42 | 148 | KRLTRK [6mer-2-584]
43 | 146 | KGILRR [6mer-2-591]
44 | 154 | KSVTKK [6mer-2-583]
45 | 139 | RWYRRR [6mer-2-594]
46 | 121 | KWQQRR [6mer-2-580]
47 | 139 | KGVSRR [6mer-2-576]
48 | 139 | RSQLKR [6mer-2-593]
49 | 148 | KSQRRK [6mer-2-572]
50 | 139 | RSQLKK [6mer-2-600]
51 | 153 | RWQQRK [6mer-2-589]
52 | 139 | RVQQKR [6mer-2-581]
53 | 135 | RGYQRR [6mer-2-571]
54 | 121 | KLYLRR [6mer-2-573]

Row | Binding affinity (RU) | Binder
55 | 153 | KGIQKK [6mer-2-596]
56 | 148 | KGRLRK [6mer-2-590]
57 | 121 | RWLSRK [6mer-2-586]
58 | 136 | RSFRRK [6mer-2-585]
59 | 135 | RSVLRK [6mer-2-578]
60 | 135 | RWQYRK [6mer-2-579]
61 | 146 | KVFRRR [6mer-2-598]
62 | 148 | RWQTRK [6mer-2-582]
63 | 122 | RWVLRK [6mer-2-592]
64 | 148 | KRISKR [6mer-2-587]
65 | 139 | RGYSRK [6mer-2-575]
66 | 149 | KWFYKK [6mer-2-588]
67 | 154 | KLRCKK [6mer-2-595]
68 | 139 | KRVQRR [6mer-2-577]
69 | 153 | KGVYRK [6mer-2-574]

Each binder was assayed against acetylcholine receptor (assay: SPR, AchR on CM5 chip, peptide 10 µM).

Row | Binding affinity (RU) | Binder
70 | 22 | KKTHAK [6mer-1-1194]
71 | 40 | KKCHWR [6mer-1-1189]
72 | 29 | KKCMKR [6mer-1-1190]
73 | 39 | RKYTKK [6mer-1-1191]
74 | 33 | KKPTNK [6mer-1-1193]
75 | 25 | KRDEDK [6mer-1-1195]
76 | 25 | KKTTGR [6mer-1-1196]
77 | 21 | KRPMAK [6mer-1-1197]
78 | 36 | RKDDDR [6mer-1-1192]
